# From IntAct's records for PubMed 17589525
# B1: Splicing factor 45 (Homo sapiens), Q96I25 (parent)
# chain: MSLYDDLGVETSDSKTEGWSKNFKLLQSQLQVKKAALTQAKSQRTKQSTVLAPVIDLKRGGSSDDRQIVDTPPHVAAGLKDPVPSGFSAGEVLIPLADEYDPMFPNDYEKVVKRQREERQRQRELERQKEIEEREKRRKDRHEASGFARRPDPDSDEDEDYERERRKRSMGGAAIAPPTSLVEKDKELPRDFPYEEDSRPRSQSSKAAIPPPVYEEQDRPRSPTGPSNSFLANMGGTVAHKIMQKYGFREGQGLGKHEQGLSTALSVEKTSKRGGKIIVGDATEKDASKKSDSNPLTEILKCPTKVVLLRNMVGAGEVDEDLEVETKEECEKYGKVGKCVIFEIPGAPDDEAVRIFLEFERVESAIKAVVDLNGRYFGGRVVKACFYNLDKFRVLDLAEQV
# partner: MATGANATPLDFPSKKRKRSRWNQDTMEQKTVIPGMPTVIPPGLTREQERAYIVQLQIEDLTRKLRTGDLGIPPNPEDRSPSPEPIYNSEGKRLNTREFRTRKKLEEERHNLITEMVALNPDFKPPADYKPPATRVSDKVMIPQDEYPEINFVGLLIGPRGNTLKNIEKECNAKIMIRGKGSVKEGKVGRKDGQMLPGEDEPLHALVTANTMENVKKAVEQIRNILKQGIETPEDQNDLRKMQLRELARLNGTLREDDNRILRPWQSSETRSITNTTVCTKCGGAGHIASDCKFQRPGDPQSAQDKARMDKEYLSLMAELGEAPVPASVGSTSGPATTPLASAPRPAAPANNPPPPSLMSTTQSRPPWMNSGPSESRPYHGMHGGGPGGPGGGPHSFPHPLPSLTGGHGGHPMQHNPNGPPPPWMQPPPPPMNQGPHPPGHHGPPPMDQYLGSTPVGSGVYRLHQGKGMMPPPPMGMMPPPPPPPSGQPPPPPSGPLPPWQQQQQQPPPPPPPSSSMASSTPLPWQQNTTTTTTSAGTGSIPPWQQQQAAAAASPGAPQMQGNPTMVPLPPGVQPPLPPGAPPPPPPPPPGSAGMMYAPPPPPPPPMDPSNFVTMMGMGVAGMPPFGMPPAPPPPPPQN
# B2: Splicing factor 45 (Homo sapiens), Q96I25 (parent)
# chain: B1 chain
# Variants of: B1
# Settings: with sf01_human SF1, Q15637
row,effect of a mutation on the interaction,Variant
1,disrupting interaction,D319A
2,disrupting interaction,D319K
3,decreasing interaction,Y376A
4,disrupting interaction,R375D
5,decreasing interaction,R375A
6,decreasing interaction,F377Y
7,decreasing interaction,F377A

# Variants of: B2
# Settings: with SF3B1, O75533-1
# SF3B1, O75533-1, sequence (O75533 whole entry): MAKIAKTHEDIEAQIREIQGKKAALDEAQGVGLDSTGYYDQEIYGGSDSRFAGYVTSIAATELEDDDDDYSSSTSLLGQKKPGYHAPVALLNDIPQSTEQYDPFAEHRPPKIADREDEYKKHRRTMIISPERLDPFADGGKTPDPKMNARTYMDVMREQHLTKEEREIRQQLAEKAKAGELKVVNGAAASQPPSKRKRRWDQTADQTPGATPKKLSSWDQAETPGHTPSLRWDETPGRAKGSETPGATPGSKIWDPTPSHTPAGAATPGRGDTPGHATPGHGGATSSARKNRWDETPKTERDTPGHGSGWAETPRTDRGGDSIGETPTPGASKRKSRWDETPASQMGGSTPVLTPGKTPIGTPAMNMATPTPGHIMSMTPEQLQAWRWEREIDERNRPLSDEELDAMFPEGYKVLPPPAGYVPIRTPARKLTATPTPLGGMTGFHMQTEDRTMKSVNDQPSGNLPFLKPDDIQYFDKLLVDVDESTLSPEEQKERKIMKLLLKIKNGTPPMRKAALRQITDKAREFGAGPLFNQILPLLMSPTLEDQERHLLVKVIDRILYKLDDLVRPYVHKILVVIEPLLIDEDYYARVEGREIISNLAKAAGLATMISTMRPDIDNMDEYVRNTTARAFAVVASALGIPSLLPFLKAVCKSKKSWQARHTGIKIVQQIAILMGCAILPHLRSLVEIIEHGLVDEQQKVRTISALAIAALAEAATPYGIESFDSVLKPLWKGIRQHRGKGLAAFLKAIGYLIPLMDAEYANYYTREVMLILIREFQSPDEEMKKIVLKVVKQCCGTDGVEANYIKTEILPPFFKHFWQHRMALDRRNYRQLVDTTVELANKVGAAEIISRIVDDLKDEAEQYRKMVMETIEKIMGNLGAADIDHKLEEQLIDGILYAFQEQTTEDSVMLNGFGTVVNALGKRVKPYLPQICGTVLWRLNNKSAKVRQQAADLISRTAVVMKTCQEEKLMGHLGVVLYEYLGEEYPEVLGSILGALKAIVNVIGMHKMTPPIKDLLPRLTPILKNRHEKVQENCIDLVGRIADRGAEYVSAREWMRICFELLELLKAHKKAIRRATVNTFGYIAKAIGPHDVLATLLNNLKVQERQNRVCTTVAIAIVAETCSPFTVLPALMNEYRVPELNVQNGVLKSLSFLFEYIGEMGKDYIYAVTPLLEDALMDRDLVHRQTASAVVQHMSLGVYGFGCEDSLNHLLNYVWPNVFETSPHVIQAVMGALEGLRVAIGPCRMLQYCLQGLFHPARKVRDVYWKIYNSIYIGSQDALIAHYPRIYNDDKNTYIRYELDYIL
row,effect of a mutation on the interaction,Variant
1,decreasing interaction,E329Q
2,disrupting interaction,Y376A
3,disrupting interaction,R375A
4,disrupting interaction,F377A
5,disrupting interaction strength,D319A;E320A;D321A
6,disrupting interaction,D319K

# Variants of: B2
# Settings: with U2AF2, P26368
# U2AF2, P26368, sequence (P26368 whole entry): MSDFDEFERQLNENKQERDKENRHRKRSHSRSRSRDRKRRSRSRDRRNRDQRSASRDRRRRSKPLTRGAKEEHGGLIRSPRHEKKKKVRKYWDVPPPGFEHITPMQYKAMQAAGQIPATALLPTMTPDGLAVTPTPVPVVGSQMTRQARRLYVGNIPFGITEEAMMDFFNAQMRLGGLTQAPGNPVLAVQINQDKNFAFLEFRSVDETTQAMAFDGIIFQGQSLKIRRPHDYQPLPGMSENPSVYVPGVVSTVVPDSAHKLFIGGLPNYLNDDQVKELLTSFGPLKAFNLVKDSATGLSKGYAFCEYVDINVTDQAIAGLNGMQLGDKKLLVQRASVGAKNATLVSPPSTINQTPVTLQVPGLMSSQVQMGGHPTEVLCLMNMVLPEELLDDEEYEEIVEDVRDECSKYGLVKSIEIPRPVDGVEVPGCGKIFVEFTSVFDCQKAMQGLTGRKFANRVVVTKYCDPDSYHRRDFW
row,effect of a mutation on the interaction,Variant
1,disrupting interaction,E329Q
2,disrupting interaction,R375A
3,disrupting interaction,R375D
4,decreasing interaction,F377A
5,disrupting interaction strength,D319A;E320A;D321A
6,disrupting interaction,D319K
